Target: GST-CD11a αI-domain
Experiment: radioligand binding

“32P-labeled pkISG15 (from UniProt P05161 1-157) (natural protein)” was tested, and the Kd was 656 nM.

Source: paper PMC5690536
